Measured values: US20170267783A1 (published 2017)
Numbering of substitutions follows the chain as printed.

B1: TR01H002-E22Hh/GLS3108-k0/GL4-E22Hk/H0000-E22L (bispecific antibody, human IgG1, kappa, L234A L235A, N297A)
heavy 1: QVQLVESGGGVVQPGRSLRLSCAASGFTFSNAWMHWVRQAPGKGLEWVAQIKAKSNNYKKYYAESVKGRFTISRDDSKNSLYLQMNSLKTEDTAVYYCRYVHYYYYYGVQAWGQGTTVTVSSASTKGPSVFPLAPSSKSTSGGTAALGCLVKDYFPEPVTVSWNSGALTSGVHTFPAVLQSSGLYSLSSVVTVPSSSLGTQTYICNVNHKPSNTKVDKKVEPKSCDKTHTCPPCPAPEAAGGPSVFLFPPKPKDTLMISRTPEVTCVVVDVSHEDPEVKFNWYVDGVEVHNAKTKPREEQYASTYRVVSVLTVLHQDWLNGKEYKCKVSNKALPAPIEKTISKAKGQPREPQVYTLPPSRCELTKNQVSLSCAVKGFYPSDIAVEWESNGQPENNYKTTPPVLDSDGSFFLVSKLTVDKSRWQQGNVFSCSVMHEALHNHYTQKSLSLSPDYKDDDDK
light 1: DIVMTQSPLSLPVTPGEPASISCRSSQSLVHSNRNTYLSWYQQKPGQAPRLLIYKVSNRFSGVPDRFSGSGSGTDFTLKISRVEAEDVGVYYCGQGTQVPYTFGQGTKLEIKRTVAAPSVFIFPPSDEQLKSGTASVVCLLNNFYPREAKVQWKVDNALQSGNSQESVTEQDSKDSTYSLSSTLTLSKADYEKHKVYACEVTHQGLSSPVTKSFNRGEC
heavy 2: DIVMTQSPLSLPVTPGEPASISCRSSQSLVHSNRNTYLHWYQQKPGQAPRLLIYKVSNRFSGVPDRFSGSGSGTDFTLKISRVEAEDVGVYYCSQNTHVPPTFGQGTKLEIKSSASTKGPSVFPLAPSSKSTSGGTAALGCLVKDYFPEPVTVSWNSGALTSGVHTFPAVLQSSGLYSLSSVVTVPSSSLGTQTYICNVNHKPSNTKVDKKVEPKSCDKTHTCPPCPAPEAAGGPSVFLFPPKPKDTLMISRTPEVTCVVVDVSHEDPEVKFNWYVDGVEVHNAKTKPREEQYASTYRVVSVLTVLHQDWLNGKEYKCKVSNKALPAPIEKTISKAKGQPREPQVCTLPPSRDELTKNQVSLWCLVKGFYPSDIAVEWESNGQPENNYKTTPPVLDSDGSFFLYSKLTVDKSRWQQGNVFSCSVMHEALHNHYTQKSLSLSPHHHHHHHH
light 2: QVQLVQSGAEVKKPGASVKVSCKASGYTFTDYEMHWIRQPPGQGLEWIGAIDPKTGDTAYSQKFKGRVTLTADKSTSTAYMELSSLTSEDTAVYYCTRFYSYTYWGQGTLVTVSSASVAAPSVFIFPPSDEQLKSGTASVVCLLNNFYPREAKVQWKVDNALQSGNSQESVTEQDSKDSTYSLSSTLTLSKADYEKHKVYACEVTHQGLSSPVTKSFNRGEC
notes: CD3 arm + GPC3 arm with VH/VL exchanged
B2: TR01H040-E2702GsKsc/H0610-E2704sEpsc/L0208-k0 (bispecific antibody, human IgG4 S228P, kappa, N297A)
heavy 1: QVQLVESGGGLVQPGRSLRLSCAASGFTFSNAWMHWVRQAPGKGLEWVAQIKDKSQNYATYYAESVKGRFTISRADSKNSIYLQMNSLKTEDTAVYYCRYVHYSASYGVDAWGQGTTVTVSSASTKGPSVFPLAPCSRSTSESTAALGCLVKDYFPEPVTVSWNSGALTSGVHTFPAVLQSSGLYSLSSVVTVPSSSLGTKTYTCNVDHKPSNTKVDKRVESKYGPPCPPCPAPEFRGGPKVFLFPPKPKDTLMISRTPEVTCVVVDVSQEDPEVQFNWYVDGVEVHNAKTKPREEQFASTYRVVSVLTVLHQDWLNGKEYKCKVSNKGLPSSIEKTISKAKGQPREPQVYTLPPSQKEMTKNQVSLTCLVKGFYPSDIAVEWESNGQPENNYKTTPPVLDSDGSFFLYSKLTVDKSRWQEGNVFSCSVMHEALHNRYTQKSLSLSP
heavy 2: QVQLVQSGAEVKKPGASVKVSCKASGYTFTDYEMHWIRQPPGQGLEWIGAIDGKTPDTAYSQKFKGRVTLTADKSTSTAYMELSSLTSEDTAVYYCTRFYSYTYWGQGTLVTVSSASTKGPSVFPLAPCSRSTSESTAALGCLVKDYFPEPVTVSWNSGALTSGVHTFPAVLQSSGLYSLSSVVTVPSSSLGTQTYTCNVDHKPSNTKVDKRVESKYGPPCPPCPAPEFRGGPKVFLFPPKPKDTLMISRTPEVTCVVVDVSQEDPEVQFNWYVDGVEVHNAKTKPREEQFASTYRVVSVLTVLHQDWLNGKEYKCKVSNKGLPSSIEKTISKAKGQPREPQVYTLPPSQEEMTKNQVSLTCLVKGFYPSDIAVEWESNGQPENNYKTTPPVLDSDGSFFLYSKLTVDKSRWQEGNVFSCSVMHEALHNHYTQESLSLSP
light: B1 light 1 with L29P, S39H, S61W, G94Y
B3: TR01H082-E2702GsKsc/GCH065-E2704sEpsc/L0011-k0 (bispecific antibody, human IgG4 S228P, kappa, N297A)
heavy 1: B2 heavy 1 with A75D, I81L, S104A, S106G
heavy 2: B2 heavy 2 with K19T, Q43E, K54P, Q62E
light: B1 light 1 with S28P, S39H
B4: TR01H067-E2702GsKsc/GCH054-E2704sEpsc/L0201-k0 (bispecific antibody, human IgG4 S228P, kappa, N297A)
heavy 1: B2 heavy 1 with A75D, I81L, S104A
heavy 2: B2 heavy 2 with K19T, Q43E, K54E, Q62E
light: B1 light 1 with S28P, L29P, S39H
B5: TR01H084-E2702GsKsc/GCH094-E2704sEpsc/L0011-k0 (bispecific antibody, human IgG4 S228P, kappa, N297A)
heavy 1: B2 heavy 1 with L11V, R16G, S104A, S106G, A111I
heavy 2: B2 heavy 2 with K19T, I37V, P40A, Q43E, I48M, K54E, Q62E
light: B1 light 1 with S28P, S39H
B6: TR01H040-E2702GsKsc/H0610-E2704sEpsc/L0206-k0 (bispecific antibody, human IgG4 S228P, kappa, N297A)
heavy 1: B2 heavy 1
heavy 2: B2 heavy 2
light: B1 light 1 with L29P, S39H, G94Y
B7: TR01H040-E2702GsKsc/H0610-E2704sEpsc/L0209-k0 (bispecific antibody, human IgG4 S228P, kappa, N297A)
heavy 1: B2 heavy 1
heavy 2: B2 heavy 2
light: B1 light 1 with L29P, L38I, S39H, G94Y
B8: TR01H067-E2702GsKsc/GCH054-E2704sEpsc/L0222-k0 (bispecific antibody, human IgG4 S228P, kappa, N297A)
heavy 1: B2 heavy 1 with A75D, I81L, S104A
heavy 2: B2 heavy 2 with K19T, Q43E, K54E, Q62E
light: B1 light 1 with L29P, L38I, S39Q, G94Y
B9: TR01H082-E2702GsKsc/GCH094-E2704sEpsc/L0011-k0 (bispecific antibody, human IgG4 S228P, kappa, N297A)
heavy 1: B2 heavy 1 with A75D, I81L, S104A, S106G
heavy 2: B2 heavy 2 with K19T, I37V, P40A, Q43E, I48M, K54E, Q62E
light: B1 light 1 with S28P, S39H
B10: TR01H040-E2702GsKsc/H0610-E2704sEpsc/L0000-k0 (bispecific antibody, human IgG4 S228P, kappa, N297A)
heavy 1: B2 heavy 1
heavy 2: B2 heavy 2
light: B1 light 1 with S39H
B11: TR01H040-E2702GsKsc/H0610-E2704sEpsc/L0211-k0 (bispecific antibody, human IgG4 S228P, kappa, N297A)
heavy 1: B2 heavy 1
heavy 2: B2 heavy 2
light: B1 light 1 with S28P, L29P, S39H, G94Y
B12: TR01H109-E2702GsKsc/GCH094-E2704sEpsc/L0011-k0 (bispecific antibody, human IgG4 S228P, kappa, N297A)
heavy 1: B2 heavy 1 with Y62V, A75D, I81L, S104A, S106G
heavy 2: B2 heavy 2 with K19T, I37V, P40A, Q43E, I48M, K54E, Q62E
light: B1 light 1 with S28P, S39H
B13: TR01H040-E2702GsKsc/H0610-E2704sEpsc/L0201-k0 (bispecific antibody, human IgG4 S228P, kappa, N297A)
heavy 1: B2 heavy 1
heavy 2: B2 heavy 2
light: B1 light 1 with S28P, L29P, S39H
B14: TR01H067-E2702GsKsc/GCH054-E2704sEpsc/L0212-k0 (bispecific antibody, human IgG4 S228P, kappa, N297A)
heavy 1: B2 heavy 1 with A75D, I81L, S104A
heavy 2: B2 heavy 2 with K19T, Q43E, K54E, Q62E
light: B1 light 1 with S25P, L29P, S39H, G94Y
B15: TR01H113-E2702GsKsc/GCH065-E2704sEpsc/L0011-k0 (bispecific antibody, human IgG4 S228P, kappa, N297A)
heavy 1: B2 heavy 1 with L11V, R16G, Y62V, S104A, S106G, A111I
heavy 2: B2 heavy 2 with K19T, Q43E, K54P, Q62E
light: B1 light 1 with S28P, S39H
B16: TR01H113-E2702sKsc/GCH065-E2704sEpsc/L0011-k0 (bispecific antibody, human IgG4 S228P, kappa, N297A)
heavy 1: B2 heavy 1 with L11V, R16G, Y62V, S104A, S106G, A111I, R437H
heavy 2: B2 heavy 2 with K19T, Q43E, K54P, Q62E
light: B1 light 1 with S28P, S39H
B17: TR01H084-E2702GsKsc/GCH065-E2704sEpsc/L0011-k0 (bispecific antibody, human IgG4 S228P, kappa, N297A)
heavy 1: B2 heavy 1 with L11V, R16G, S104A, S106G, A111I
heavy 2: B2 heavy 2 with K19T, Q43E, K54P, Q62E
light: B1 light 1 with S28P, S39H
B18: TR01H109-E2702GsKsc/GCH065-E2704sEpsc/L0011-k0 (bispecific antibody, human IgG4 S228P, kappa, N297A)
heavy 1: B2 heavy 1 with Y62V, A75D, I81L, S104A, S106G
heavy 2: B2 heavy 2 with K19T, Q43E, K54P, Q62E
light: B1 light 1 with S28P, S39H
B19: TR01H040-E2702GsKsc/H0610-E2704sEpsc/L0204-k0 (bispecific antibody, human IgG4 S228P, kappa, N297A)
heavy 1: B2 heavy 1
heavy 2: B2 heavy 2
light: B1 light 1 with L29P, S39H, S61R
B20: TR01H040-E2702GsKsc/H0610-E2704sEpsc/L0203-k0 (bispecific antibody, human IgG4 S228P, kappa, N297A)
heavy 1: B2 heavy 1
heavy 2: B2 heavy 2
light: B1 light 1 with L29P, L38I, S39H
B21: TR01H113-E2702GsKsc/GCH094-E2704sEpsc/L0011-k0 (bispecific antibody, human IgG4 S228P, kappa, N297A)
heavy 1: B2 heavy 1 with L11V, R16G, Y62V, S104A, S106G, A111I
heavy 2: B2 heavy 2 with K19T, I37V, P40A, Q43E, I48M, K54E, Q62E
light: B1 light 1 with S28P, S39H
B22: TR01H082-E2702GsKsc/GCH094-E2704sEpsc/L0201-k0 (bispecific antibody, human IgG4 S228P, kappa, N297A)
heavy 1: B2 heavy 1 with A75D, I81L, S104A, S106G
heavy 2: B2 heavy 2 with K19T, I37V, P40A, Q43E, I48M, K54E, Q62E
light: B1 light 1 with S28P, L29P, S39H

These binders were tested against T1, soluble human CD3ε chain (human, UniProt P07766 23-126) (assay: SPR (Biacore)).
T1 construct: also called CD3 epsilon
T1 sequence (P07766 23-126 limits assumed): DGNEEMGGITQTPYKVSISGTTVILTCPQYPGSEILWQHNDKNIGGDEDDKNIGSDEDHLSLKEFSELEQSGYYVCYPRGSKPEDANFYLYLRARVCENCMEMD

Row | Binder | Kd [nM]
1 | B1 | 4.76

The binders below were run against extracellular matrix (ECM; BD Matrigel) (assay: ECL on Matrigel-coated plate, signal divided by that of MRAH-G1d/MRAL-k0).

Row | Binder | ECM binding ratio (standard = 1) (ratio to standard antibody)
2 | B2 | 50.4
3 | B3 | 1.7
4 | B4 | 0.5
5 | B5 | 1.2
6 | B6 | 15.4
7 | B7 | 7.4
8 | B8 | 0.6
9 | B9 | 0.7
10 | B10 | 0.8
11 | B11 | 15.5
12 | B12 | 0.4
13 | B13 | 0.8
14 | B14 | 3.3
15 | B15 | 2.5
16 | B16 | 0.3
17 | B17 | 1.3
18 | B18 | 0.7
19 | B19 | 4.4
20 | B20 | 0.8
21 | B21 | 1.6
22 | B22 | 1.1
